In PMC10512467, “Alternative splicing of a single exon causes a major impact on the affinity of Caenorhabditis elegans tropomyosin isoforms for actin filaments” (Frontiers in Cell and Developmental Biology, 2023):

Biological target: F-actin (actin purified from rabbit muscle acetone powder) (rabbit, UniProt P68135 1-377)
Assay: co-sedimentation; F-actin co-sedimentation (supernatant depletion): constant 2 uM LEV-11 isoform with 0-60 uM F-actin, 1 h, in F-buffer (0.1 M KCl, 2 mM MgCl2, 20 mM HEPES-KOH, pH 7.5, 1 mM dithiothreitol); 200,000 x g for 20 min; bound portion from the depletion of the supernatant, SDS-PAGE densitometry
Details: both partners purified

B1: LEV-11T (C. elegans low-molecular-weight tropomyosin isoform, exons E3b-E4a-E5a-E6-E7b-E8-E9b), recombinant with extra Ala-Ser after the initiator Met (natural protein)
chain: MASSKVNKEGAQQTSLLDVLKKKMRQAREEAEAAKDEADEVKRQLEEERKKREDAEAEVAALNRRIVLVEEDLERTEDRLKTATSKLEQATKAADEADRARKSMETRSQQDEERANFLETQVDEAKVIAEDADRKYEEVARKLAMVEADLERAEERAEAGENKIVELEEELRVVGNNLKSLEVSEEKALQREDSYEEQIRTVSSRLKEAETRAEFAERSVQKLQKEVDRLEELRDAEVLKARQLQDELDHMVQELNSV
  Kd: 3.7 µM
